Data set [1] deals with Pv-M17Δ53-78, Pv-M17 N-terminal loop deletion mutant (Plasmodium vivax) (UniProt A5K3U9). Kind of data set: crystal structure.
Data set [2] deals with the molecule itself. Description: AUC.
Data set [3] concerns the molecule itself. Kind of data set: SEC. (In gel filtration, larger molecules generally elute earlier.)
Data set [4] concerns the molecule itself. Kind of data set: AUC. This is another data set of the same source.
Data set [5] deals with the molecule itself. Kind of data set: SEC-MALS.
Data set [6] deals with the molecule itself. Kind of data set: AUC. This is another data set of the same source.

“And” between values parts separate entries of the source, which are not always exact repeats. Equal entries are not always repeated.

By stoichiometry N is commonly meant the number of molecules, sites or subunits per partner or assembly.

In the case of “Pv-M17Δ53-78, Pv-M17 N-terminal loop deletion mutant (from UniProt A5K3U9 73-621) (enzyme)”, the stoichiometry N in data set [1] was determined as 6.

B1: Pv-M17, M17 aminopeptidase from Plasmodium vivax, wild type (residues 73 – 621) (enzyme)
chain: MATTVPQVVSLDPTTIPIDYHTPIDDLSIEVKDISAEACPADEGLIVFLLNSAPKHSSSGGSGGNGGSAGSSGNGEGGAQIKINSSVKDNTINEFLKEGNMENFTGKLGTSKSFYIANDQKKYVSLAYVGCGPANEETELEIRKVAYALVTLLHDSKHKKVSIIFEIKIEEALFRFFLEHLFYEYVTDERFKSADKSTETDFIKNLSLHIANADAYKGQIDKARVYFYGTYYAAQLIAAPSNYCNPVSLSNAAVELAQKVNLECKILDVKELEELKMGAYLSVGKGSMYPNKFIHLTYKGAQTGASQNEKKKIALIGKGITFDSGGYNLKAAPGSMIDLMKFDMSGCAAVLGCAYCIGTIKPDNVEVHFLSAVCENMVSKNSYRPGDIITASNGKTIEVGNTDAEGRLTLADALVYAEKLGVDYIVDIATLTGAMLYSLGTSYAGVFGNNDQLINKILSSSKTSNEPVWWLPIINEYRSSLNSKYADLNNISSSVKASSVVASLFLKEFIENTPWAHIDIAGVSWNFKARKPKGFGVRLLTEFVLNDAV
As to B1, the “stoichiometry N” value in data set [2] was 2; in data set [3] it was 4; in data set [4], 6; in data set [5] it was ~6 and ~2.

B2: PfA-M17, M17 aminopeptidase from Plasmodium falciparum, wild type (enzyme)
chain: MASEVPQVVSLDPTSIPIEYNTPIHDIKVQVYDIKGGCNVEEGLTIFLVNNPGKENGPVKISSKVNDKNVSEFLKDENMEKFNVKLGTSKHFYMFNDNKNSVAVGYVGCGSVADLSEADMKRVVLSLVTMLHDNKLSKLTVVFEINVDKNLFRFFLETLFYEYMTDERFKSTDKNVNMEYIKHLGVYINNADTYKEEVEKARVYYFGTYYASQLIAAPSNYCNPVSLSNAAVELAQKLNLEYKILGVKELEELKMGAYLSVGKGSMYPNKFIHLTYKSKGDVKKKIALVGKGITFDSGGYNLKAAPGSMIDLMKFDMSGCAAVLGCAYCVGTLKPENVEIHFLSAVCENMVSKNSYRPGDIITASNGKTIEVGNTDAEGRLTLADALVYAEKLGVDYIVDIATLTGAMLYSLGTSYAGVFGNNEELINKILNSSKTSNEPVWWLPIINEYRATLNSKYADINNISSSVKASSIVASLFLKEFVQNTAWAHIDIAGVSWNFKARKPKGFGVRLLTEFVLNDAL
As to B2, the “stoichiometry N” value in data set [2] was 2; in data set [6], 6; in data set [5], approximately 6.

B3: PfA-M17 (D379A + E461L) (enzyme)
chain: MASEVPQVVSLDPTSIPIEYNTPIHDIKVQVYDIKGGCNVEEGLTIFLVNNPGKENGPVKISSKVNDKNVSEFLKDENMEKFNVKLGTSKHFYMFNDNKNSVAVGYVGCGSVADLSEADMKRVVLSLVTMLHDNKLSKLTVVFEINVDKNLFRFFLETLFYEYMTDERFKSTDKNVNMEYIKHLGVYINNADTYKEEVEKARVYYFGTYYASQLIAAPSNYCNPVSLSNAAVELAQKLNLEYKILGVKELEELKMGAYLSVGKGSMYPNKFIHLTYKSKGDVKKKIALVGKGITFASGGYNLKAAPGSMIDLMKFDMSGCAAVLGCAYCVGTLKPENVEIHFLSAVCENMVSKNSYRPGDIITASNGKTIEVGNTDALGRLTLADALVYAEKLGVDYIVDIATLTGAMLYSLGTSYAGVFGNNEELINKILNSSKTSNEPVWWLPIINEYRATLNSKYADINNISSSVKASSIVASLFLKEFVQNTAWAHIDIAGVSWNFKARKPKGFGVRLLTEFVLNDAL
In the case of B3, the binding result in data set [2] is “binds”.

(Values after doi:10.1101/2020.10.08.331538 (bioRxiv, 2020).)
